In the assay the target is T1, PACE4 (UniProt P29122 150-969, limits assumed).
T1 sequence (looked up): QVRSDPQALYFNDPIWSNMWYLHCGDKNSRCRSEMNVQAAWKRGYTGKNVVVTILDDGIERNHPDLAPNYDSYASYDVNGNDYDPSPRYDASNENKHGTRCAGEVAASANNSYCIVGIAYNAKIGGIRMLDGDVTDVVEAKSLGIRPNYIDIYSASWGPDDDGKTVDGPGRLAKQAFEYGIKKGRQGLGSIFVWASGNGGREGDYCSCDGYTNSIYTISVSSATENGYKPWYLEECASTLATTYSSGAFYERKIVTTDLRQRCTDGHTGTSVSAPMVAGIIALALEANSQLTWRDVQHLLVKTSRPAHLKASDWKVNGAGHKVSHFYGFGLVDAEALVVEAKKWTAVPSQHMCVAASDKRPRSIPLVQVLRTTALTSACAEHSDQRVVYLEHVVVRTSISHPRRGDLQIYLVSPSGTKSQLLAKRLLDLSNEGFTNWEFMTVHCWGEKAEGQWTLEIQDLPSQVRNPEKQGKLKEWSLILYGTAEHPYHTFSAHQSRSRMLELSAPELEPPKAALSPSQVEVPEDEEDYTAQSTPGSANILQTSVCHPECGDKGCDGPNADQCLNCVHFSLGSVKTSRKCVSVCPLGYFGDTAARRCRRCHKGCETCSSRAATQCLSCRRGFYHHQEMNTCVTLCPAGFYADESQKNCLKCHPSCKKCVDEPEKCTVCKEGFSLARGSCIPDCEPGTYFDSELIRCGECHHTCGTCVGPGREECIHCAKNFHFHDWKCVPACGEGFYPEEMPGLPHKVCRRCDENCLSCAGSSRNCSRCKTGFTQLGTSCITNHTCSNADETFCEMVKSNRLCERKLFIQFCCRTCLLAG
Put plainly: cell-based or functional assay.

Results on 21 molecules are retold here after patent EP4789680A1, “NOVEL PACE4 INHIBITOR AND USE THEREOF IN ANTI-OSTEOARTHRITIS” (Inflamax Pharmaceuticals Limited, priority 2023, dated 2025).

*1 amine or outer side, *2 acyl side, *3 side chain or, on linkers, in order; H or OH if unused. Where no end group is shown, it is not given here. [ ]: non-standard residue; d: D form. Ala(piperidin-4-yl) = O=C([C@H](CC1CCN([*:3])CC1)N[*:1])[*:2]; Phe(4-guanidino) = N=C(N)Nc1ccc(C[C@H](N)C(=O)O)cc1; Phe(4-CF3) = N[C@@H](Cc1ccc(C(F)(F)F)cc1)C(=O)O

B1: dP-dR-R-F(4-CF3)-K-R-dT-NH2 (peptide)
peptide: [dP][dR]R[Phe(4-CF3)]KR[dT]-NH2
modifications: N-terminus assumed
SMILES: C[C@H](O)[C@@H](NC(=O)[C@H](CCCNC(=N)N)NC(=O)[C@H](CCCCN)NC(=O)[C@H](Cc1ccc(C(F)(F)F)cc1)NC(=O)[C@H](CCCNC(=N)N)NC(=O)[C@@H](CCCNC(=N)N)NC(=O)[C@H]1CCCN1)C(N)=O
Turning to B1, the “IC50 (µM), PACE4 enzyme inhibition, fluorogenic substrate pyroGlu-Arg-Val-Lys-Arg-methyl-coumaryl-7-amide” value (“IC50 (µM), PACE4 enzyme inhibition” for short) came out at 0.02 µM.

B2: Ac-R-R-F(4-Guan)-K-R-dT-NH2 (peptide)
peptide: Ac-RR[Phe(4-guanidino)]KR[dT]-NH2
SMILES: CC(=O)N[C@@H](CCCNC(=N)N)C(=O)N[C@@H](CCCNC(=N)N)C(=O)N[C@@H](Cc1ccc(NC(=N)N)cc1)C(=O)N[C@@H](CCCCN)C(=O)N[C@@H](CCCNC(=N)N)C(=O)N[C@@H](C(N)=O)[C@H](C)O
For the molecule B2, the “IC50 (µM), PACE4 enzyme inhibition” value came out at 0.018 µM.

B3: Ac-R-R-A(4-Pip)-K-R-dT-NH2 (peptide)
peptide: Ac-RR[Ala(piperidin-4-yl)]KR[dT]-NH2
SMILES: CC(=O)N[C@@H](CCCNC(=N)N)C(=O)N[C@@H](CCCNC(=N)N)C(=O)N[C@@H](CC1CCNCC1)C(=O)N[C@@H](CCCCN)C(=O)N[C@@H](CCCNC(=N)N)C(=O)N[C@@H](C(N)=O)[C@H](C)O
As to B3, the “IC50 (µM), PACE4 enzyme inhibition” value worked out at 0.09 µM.

B4: Ac-R-A(4-Pip)-K-R-dT-NH2 (peptide)
peptide: Ac-R[Ala(piperidin-4-yl)]KR[dT]-NH2
SMILES: CC(=O)N[C@@H](CCCNC(=N)N)C(=O)N[C@@H](CC1CCNCC1)C(=O)N[C@@H](CCCCN)C(=O)N[C@@H](CCCNC(=N)N)C(=O)N[C@@H](C(N)=O)[C@H](C)O
With B4, the “IC50 (µM), PACE4 enzyme inhibition” value worked out at 0.1 µM.

As to Ac-RFKR-NH2 [Ac-R-F-K-R-NH2], the “IC50 (µM), PACE4 enzyme inhibition” value was determined as 12.7 µM.

B5: dP-dR-R-F(4-Guan)-K-R-dT-NH2 (peptide)
peptide: [dP][dR]R[Phe(4-guanidino)]KR[dT]-NH2
modifications: N-terminus assumed
SMILES: C[C@H](O)[C@@H](NC(=O)[C@H](CCCNC(=N)N)NC(=O)[C@H](CCCCN)NC(=O)[C@H](Cc1ccc(NC(=N)N)cc1)NC(=O)[C@H](CCCNC(=N)N)NC(=O)[C@@H](CCCNC(=N)N)NC(=O)[C@H]1CCCN1)C(N)=O
Regarding B5, the “IC50 (µM), PACE4 enzyme inhibition” value is 0.034 µM.

B6: Ac-R-A(4-Pip)-K-R-T-NH2 (peptide)
peptide: Ac-R[Ala(piperidin-4-yl)]KRT-NH2
SMILES: CC(=O)N[C@@H](CCCNC(=N)N)C(=O)N[C@@H](CC1CCNCC1)C(=O)N[C@@H](CCCCN)C(=O)N[C@@H](CCCNC(=N)N)C(=O)N[C@H](C(N)=O)[C@@H](C)O
In the case of B6, the “IC50 (µM), PACE4 enzyme inhibition” value worked out at 0.3 µM.

B7: Ac-R-R-F-K-R-dT-NH2 (peptide)
peptide: Ac-RRFKR[dT]-NH2
SMILES: CC(=O)N[C@@H](CCCNC(=N)N)C(=O)N[C@@H](CCCNC(=N)N)C(=O)N[C@@H](Cc1ccccc1)C(=O)N[C@@H](CCCCN)C(=O)N[C@@H](CCCNC(=N)N)C(=O)N[C@@H](C(N)=O)[C@H](C)O
In the case of B7, the “IC50 (µM), PACE4 enzyme inhibition” value was 0.46 µM.

B8: Ac-dR-R-F(4-CF3)-K-R-dT-NH2 (peptide)
peptide: Ac-[dR]R[Phe(4-CF3)]KR[dT]-NH2
SMILES: CC(=O)N[C@H](CCCNC(=N)N)C(=O)N[C@@H](CCCNC(=N)N)C(=O)N[C@@H](Cc1ccc(C(F)(F)F)cc1)C(=O)N[C@@H](CCCCN)C(=O)N[C@@H](CCCNC(=N)N)C(=O)N[C@@H](C(N)=O)[C@H](C)O
With B8, the “IC50 (µM), PACE4 enzyme inhibition” value turned out to be 0.04 µM.

B9: P-dR-R-F(4-CF3)-K-R-dT-NH2 (peptide)
peptide: P[dR]R[Phe(4-CF3)]KR[dT]-NH2
modifications: N-terminus assumed
SMILES: C[C@H](O)[C@@H](NC(=O)[C@H](CCCNC(=N)N)NC(=O)[C@H](CCCCN)NC(=O)[C@H](Cc1ccc(C(F)(F)F)cc1)NC(=O)[C@H](CCCNC(=N)N)NC(=O)[C@@H](CCCNC(=N)N)NC(=O)[C@@H]1CCCN1)C(N)=O
Consider B9, for which the “IC50 (µM), PACE4 enzyme inhibition” value turned out to be 0.02 µM.

B10: P-dR-R-F(4-Guan)-K-R-dT-NH2 (peptide)
peptide: P[dR]R[Phe(4-guanidino)]KR[dT]-NH2
modifications: N-terminus assumed
SMILES: C[C@H](O)[C@@H](NC(=O)[C@H](CCCNC(=N)N)NC(=O)[C@H](CCCCN)NC(=O)[C@H](Cc1ccc(NC(=N)N)cc1)NC(=O)[C@H](CCCNC(=N)N)NC(=O)[C@@H](CCCNC(=N)N)NC(=O)[C@@H]1CCCN1)C(N)=O
Turning to B10, the “IC50 (µM), PACE4 enzyme inhibition” value was found to be 0.025 µM.

B11: Ac-R-F-K-R-dT-NH2 (peptide)
peptide: Ac-RFKR[dT]-NH2
SMILES: CC(=O)N[C@@H](CCCNC(=N)N)C(=O)N[C@@H](Cc1ccccc1)C(=O)N[C@@H](CCCCN)C(=O)N[C@@H](CCCNC(=N)N)C(=O)N[C@@H](C(N)=O)[C@H](C)O
For the molecule B11, the “IC50 (µM), PACE4 enzyme inhibition” value worked out at 5 µM.

As to Ac-RFKRT-NH2 [Ac-R-F-K-R-T-NH2], the “IC50 (µM), PACE4 enzyme inhibition” value turned out to be 2 µM.

B12: Ac-dR-R-F(4-Guan)-K-R-dT-NH2 (peptide)
peptide: Ac-[dR]R[Phe(4-guanidino)]KR[dT]-NH2
SMILES: CC(=O)N[C@H](CCCNC(=N)N)C(=O)N[C@@H](CCCNC(=N)N)C(=O)N[C@@H](Cc1ccc(NC(=N)N)cc1)C(=O)N[C@@H](CCCCN)C(=O)N[C@@H](CCCNC(=N)N)C(=O)N[C@@H](C(N)=O)[C@H](C)O
With B12, the “IC50 (µM), PACE4 enzyme inhibition” value is 0.015 µM.

B13: Ac-R-F(4-Guan)-K-R-T-NH2 (peptide)
peptide: Ac-R[Phe(4-guanidino)]KRT-NH2
SMILES: CC(=O)N[C@@H](CCCNC(=N)N)C(=O)N[C@@H](Cc1ccc(NC(=N)N)cc1)C(=O)N[C@@H](CCCCN)C(=O)N[C@@H](CCCNC(=N)N)C(=O)N[C@H](C(N)=O)[C@@H](C)O
Consider B13, for which the “IC50 (µM), PACE4 enzyme inhibition” value turned out to be 0.023 µM.

B14: Ac-R-F(4-Guan)-K-R-dT-NH2 (peptide)
peptide: Ac-R[Phe(4-guanidino)]KR[dT]-NH2
SMILES: CC(=O)N[C@@H](CCCNC(=N)N)C(=O)N[C@@H](Cc1ccc(NC(=N)N)cc1)C(=O)N[C@@H](CCCCN)C(=O)N[C@@H](CCCNC(=N)N)C(=O)N[C@@H](C(N)=O)[C@H](C)O
Regarding B14, the “IC50 (µM), PACE4 enzyme inhibition” value stood at 0.021 µM.

B15: P-dR-R-A(4-Pip)-K-R-dT-NH2 (peptide)
peptide: P[dR]R[Ala(piperidin-4-yl)]KR[dT]-NH2
modifications: N-terminus assumed
SMILES: C[C@H](O)[C@@H](NC(=O)[C@H](CCCNC(=N)N)NC(=O)[C@H](CCCCN)NC(=O)[C@H](CC1CCNCC1)NC(=O)[C@H](CCCNC(=N)N)NC(=O)[C@@H](CCCNC(=N)N)NC(=O)[C@@H]1CCCN1)C(N)=O
B15: the “IC50 (µM), PACE4 enzyme inhibition” value stood at 0.07 µM.

B16: Ac-dR-R-F-K-R-dT-NH2 (peptide)
peptide: Ac-[dR]RFKR[dT]-NH2
SMILES: CC(=O)N[C@H](CCCNC(=N)N)C(=O)N[C@@H](CCCNC(=N)N)C(=O)N[C@@H](Cc1ccccc1)C(=O)N[C@@H](CCCCN)C(=O)N[C@@H](CCCNC(=N)N)C(=O)N[C@@H](C(N)=O)[C@H](C)O
Turning to B16, the “IC50 (µM), PACE4 enzyme inhibition” value is 0.19 µM.

B17: dP-dR-R-A(4-Pip)-K-R-dT-NH2 (peptide)
peptide: [dP][dR]R[Ala(piperidin-4-yl)]KR[dT]-NH2
modifications: N-terminus assumed
SMILES: C[C@H](O)[C@@H](NC(=O)[C@H](CCCNC(=N)N)NC(=O)[C@H](CCCCN)NC(=O)[C@H](CC1CCNCC1)NC(=O)[C@H](CCCNC(=N)N)NC(=O)[C@@H](CCCNC(=N)N)NC(=O)[C@H]1CCCN1)C(N)=O
For B17, the “IC50 (µM), PACE4 enzyme inhibition” value was found to be 0.08 µM.

B18: Ac-R-R-F(4-CF3)-K-R-dT-NH2 (peptide)
peptide: Ac-RR[Phe(4-CF3)]KR[dT]-NH2
SMILES: CC(=O)N[C@@H](CCCNC(=N)N)C(=O)N[C@@H](CCCNC(=N)N)C(=O)N[C@@H](Cc1ccc(C(F)(F)F)cc1)C(=O)N[C@@H](CCCCN)C(=O)N[C@@H](CCCNC(=N)N)C(=O)N[C@@H](C(N)=O)[C@H](C)O
Consider B18, for which the “IC50 (µM), PACE4 enzyme inhibition” value was found to be 0.09 µM.

B19: Ac-dR-R-A(4-Pip)-K-R-dT-NH2 (peptide)
peptide: Ac-[dR]R[Ala(piperidin-4-yl)]KR[dT]-NH2
SMILES: CC(=O)N[C@H](CCCNC(=N)N)C(=O)N[C@@H](CCCNC(=N)N)C(=O)N[C@@H](CC1CCNCC1)C(=O)N[C@@H](CCCCN)C(=O)N[C@@H](CCCNC(=N)N)C(=O)N[C@@H](C(N)=O)[C@H](C)O
As to B19, the “IC50 (µM), PACE4 enzyme inhibition” value came out at 0.12 µM.
